Assay results published in PMC9849103 (Nature Communications, 2023).

B1: C3123 (antibody, V domains shown)
VH: QVQLQESGPGLVKPSQTLSLTCAVSGDSVSRGGFYWTWIRQLPGMGLECIGYIDYSGSTHYNPSLKSRVTISLDTSNNQFSLKMTSVTAADTALYYCARGAVPGIGWFDPWGQGTLVTVSS
VL: SYELTQPPSVSVAPGKTASISCGGNNIATKSVHWYQQKPGQAPALVIYYDSDRPSGIPERFSGSNSGNTATLTISRVEAGDEAAYYCQVWESSGDHVVFGGGTKLTVL
notes: source: 293-6E cells, transfected, purified (Protein G Sepharose)
B2: C986 (antibody, V domains shown)
VH: EVQLVQSGAEVKKPGETLKISCKGSGDSFSNYWIGWVRQSPGKGLEWMAIVYPGDSDARYSPSFQGQVTISADKSVTTAYLKWSSLKASDTAIYYCVRGLPVDWYFDLWGRGTLVTVSS
VL: QSVLTQPPSVSGAPEQRVTISCTGSSSNIGAGHDVHWYQQLPGTAPKLLIYNNNNRPSGVPDRFSGSKSGASASLAISGLQAEDEAEYYCQSYDKSLSVLYVLGTGTKVTV
notes: as for B1
B3: C3054 (antibody, V domains shown)
VH: EVQLVESGGGLGQPGGSLRLSCVASGFSFSTYSMNWVRQAPGKGLEWLSYINAGSTTIYSADSVTGRFSISRDNAKNSLYLHMNSLRADDTAVYYCARGVPFDYWGQGTLVTVSS
VL: DIVMTQTPLSLPVTPGEPASISCRSSRSLLDSDDADTYLDWYLQKPGQSPQLLIYTLSYRASGVPDRFSGSGSGTDFTLKISRVEAEDVGVYYCMQRIQFPWTFGQGTKVEIK
notes: as for B1
B4: C3083 (antibody, V domains shown)
VH: EVQLVESGGGFVRPGGSLRLSCSTSGFTFSMFAMHWVRQAPGKGLEYVSGVSSNGLNTYYADSVKGRLVISRDDSKNTLYLQMTGLRVEDTAVYYCVKDDDFGDPGYGYHLDYWGQGTLVTVSS
VL: QSALTQPASVSGSPGQSITISCTGTSSDVGGYNYVSWFQQHPGKAPKLVIFEVSNRPSGISDRFSGSKSGNTASLTISELQAEDEADYYCSSYTSRIPIIFGTGTKVTV
notes: as for B1
B5: C3060 (antibody, V domains shown)
VH: QVQLQESGPGLLKPSQTLSLICTVSGGSISSGDYYWNWIRQTPGKGLEWIGYIYYSGITYYNPSLKSRLSISLDTPKNQFSLKLTSVTAADTAVYYCATGPPTVTTENFDNWGQGTLVTVSS
VL: QSVLTQPPSVSAAPGQKVTISCSGSSSNIGNYYVSWYQQLPGTAPQLVIYDNNKRPSGIPDRFSGSKSGTSATLAITGLQTGDEADYYCGTWDASLNAGVFGGGTRLTVL
notes: as for B1
B6: C3111 (antibody, V domains shown)
VH: EVQLVESGGRVVRPGESLRLSCAASGFNFNDYGMSWVRQVPGKGLEWVSGINWNGAISGYVDSVKGRFIISRDNAKNSLYLQMNSLRAEDTALYHCARAYCGDECYSLLVRGDALDIWGQGTMVTVSS
VL: QSVLTQPPSVSAAPGQTVTISCSGSSSNIGMNDVSWYQHLPGTAPKLLIYDSHKRPSGIPDRFSGSNSGTSATLGITGLQTGDEAHYYCGAWDSSLSAVVFGGGTMLAVL
notes: as for B1
B7: C2588 (antibody, V domains shown)
VH: QVQLVQSGAEVKKPGSSVKVSCKASGDTFNIYAINWVRQAPGQGLEWMGRIIPRFGMANYAQKFQGRVTMTADKSTSTAYMDLISLKSEDTAVYYCATSAYLSGSGHYFDYWGQGTLVTVSS
VL: EIVLTQSPATLSLSPGERATLSCRASQSVGGSFLAWYQQKPGQAPRLLIYGASSRATGIPDRFSGSGSGTDFTLTISRLEPEDFAVYFCQQYASSRTFGQGTKVEIK
notes: as for B1
B8: C3057 (antibody, V domains shown)
VH: QVQLVQSGGGLVQPGGSLRLSCEASGLSVSRNYMRWVRQAPGKGLEWVSLIYSGGSTFYADSVKGRFTISRDNSKNTLYLQMTSLRAEDTAVYYCARDLVDYGMDVWGHGTTVTVSS
VL: DIQLTQSPSFLSASVGDRVTITCRASQGISNYLAWYQQKPGKAPQLLIYAASTLQSGVPSRFSGSGSGTEFTLTISSLQPEDFATYFCQQLNSDVITFGQGTRLEIK
notes: as for B1

Molecular target: WT RBD (SARS-CoV-2 Wuhan-Hu-1 spike receptor binding domain) (SARS-CoV-2 (Wuhan-Hu-1), UniProt P0DTC2)
Assay: BLI
Settings: both partners purified

Binder | Kd [nM]
B1 | 1.57
B2 | 0.472
B3 | 2.49
B4 | 0.201
B5 | 1.1
B6 | 0.236
B7 | 1.47
B8 | 2.08
